{"source": "patent US20240327516A1", "about": "(Zymeworks, published 2024)", "key": {"[1]": {"target": "T1, mesothelin (MSLN) on MSLN-expressing tumor cells (human, UniProt Q13421 296-598)", "T1 sequence (Q13421 other isoform, or with tags, fused parts or gaps limits assumed)": "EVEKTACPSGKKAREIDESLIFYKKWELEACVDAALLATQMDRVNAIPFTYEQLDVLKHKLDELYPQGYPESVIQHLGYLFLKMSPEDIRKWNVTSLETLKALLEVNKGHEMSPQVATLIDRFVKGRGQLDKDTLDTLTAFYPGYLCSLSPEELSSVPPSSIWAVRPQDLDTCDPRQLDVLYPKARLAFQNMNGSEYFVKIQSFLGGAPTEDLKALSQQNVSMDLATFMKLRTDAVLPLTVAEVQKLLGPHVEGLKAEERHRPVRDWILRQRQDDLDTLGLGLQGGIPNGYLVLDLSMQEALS", "experiment": "cell-based or functional assay"}, "[2]": {"target": "MSLN (form in the assay not stated) (UniProt Q13421 296-580)", "sequence (Q13421 other isoform, or with tags, fused parts or gaps limits assumed)": "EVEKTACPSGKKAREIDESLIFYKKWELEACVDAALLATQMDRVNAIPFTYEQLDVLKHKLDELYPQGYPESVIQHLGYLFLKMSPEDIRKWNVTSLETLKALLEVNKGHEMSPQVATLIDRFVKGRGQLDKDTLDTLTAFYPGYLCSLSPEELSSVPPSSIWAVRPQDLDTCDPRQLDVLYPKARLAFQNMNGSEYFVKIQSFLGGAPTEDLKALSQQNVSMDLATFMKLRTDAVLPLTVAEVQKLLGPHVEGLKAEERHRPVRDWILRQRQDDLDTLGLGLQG", "experiment": "method and antigen form not stated in Table 12"}, "[3]": {"target": "T1, mesothelin (MSLN) on MSLN-expressing …", "experiment": "whole-cell flow cytometry on OVCAR-3 cells, apparent affinity"}, "[4]": {"target": "T2, CD3 on CD3+ Jurkat cells and primary human T cells (human, UniProt P07766 23-207)", "T2 construct": "whole, on cells; also called native CD3; CD3ε", "T2 sequence (P07766 23-207)": "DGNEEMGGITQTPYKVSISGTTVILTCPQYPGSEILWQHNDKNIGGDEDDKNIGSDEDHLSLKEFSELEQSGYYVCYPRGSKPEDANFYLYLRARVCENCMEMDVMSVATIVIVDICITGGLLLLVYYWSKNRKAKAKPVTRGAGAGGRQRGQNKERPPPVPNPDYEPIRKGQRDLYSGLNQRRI", "experiment": "whole-cell flow cytometry on primary human T cells, apparent affinity"}, "[5]": {"target": "T1, mesothelin (MSLN) on MSLN-expressing …", "experiment": "assay not given; matches Table 16 (OVCAR-3 cells); reference v32523"}, "[6]": {"target": "T2, CD3 on CD3+ Jurkat cells and primary …", "experiment": "flow cytometry on human pan T cells, CD4+ gate (Alexa Fluor 647 anti-IgG-Fc, MFI)"}, "[7]": {"target": "T2, CD3 on CD3+ Jurkat cells and primary …", "experiment": "flow cytometry on human pan T cells, CD8+ gate (Alexa Fluor 647 anti-IgG-Fc, MFI)"}, "[8]": {"target": "T2, CD3 on CD3+ Jurkat cells and primary …", "experiment": "flow cytometry on human pan T cells, CD4+ and CD8+ cells together (Alexa Fluor 647 anti-IgG-Fc, MFI)"}, "[9]": {"target": "T3, Recombinant MSLN Fc fusion protein (R&D: 3265-MS) (UniProt Q13421 296-580)", "T3 construct": "also called recombinant MSLN fusion protein", "experiment": "SPR; reference v31805"}, "[10]": {"target": "T4, Recombinant CD3epsilon/delta Fc fusion protein (Sino Biological) (UniProt P07766 23-126; P04234 22-105)", "T4 construct": "also called recombinant CD3 fusion protein", "T4 sequence (P07766 23-126, stated change not applied, chain 1 of 2)": "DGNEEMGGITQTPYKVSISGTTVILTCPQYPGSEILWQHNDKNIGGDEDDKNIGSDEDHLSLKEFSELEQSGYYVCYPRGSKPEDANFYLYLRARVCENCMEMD", "T4 sequence (P04234 22-105, stated change not applied, chain 2 of 2)": "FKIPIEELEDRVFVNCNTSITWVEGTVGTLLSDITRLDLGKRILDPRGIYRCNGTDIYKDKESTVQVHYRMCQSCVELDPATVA", "experiment": "SPR; reference v31805"}, "[11]": {"target": "T1, mesothelin (MSLN) on MSLN-expressing …", "experiment": "cell-based or functional assay", "remark": "listed apart in the source"}, "[12]": {"target": "T2, CD3 on CD3+ Jurkat cells and primary …", "experiment": "flow cytometry on primary human T cells; reference v29191"}, "[13]": {"target": "T2, CD3 on CD3+ Jurkat cells and primary …", "experiment": "flow cytometry on primary human T cells; reference v31805"}, "[14]": {"target": "T3, Recombinant MSLN Fc fusion protein …", "experiment": "SPR, BioRad ProteOn XPR36, 25 C, MSLN-Fc captured on anti-Fc chip"}, "[15]": {"target": "T3, Recombinant MSLN Fc fusion protein …", "experiment": "assay not given; matches Table 15 (SPR); reference v31805"}, "[16]": {"target": "T4, Recombinant CD3epsilon/delta Fc fusion …", "experiment": "assay not given; matches Table 15 (SPR); reference v31805"}, "[17]": {"target": "T4, Recombinant CD3epsilon/delta Fc fusion …", "experiment": "SPR, BioRad ProteOn XPR36, 25 C, CD3 epsilon/delta-Fc captured on anti-Fc chip"}, "[18]": {"target": "T1, mesothelin (MSLN) on MSLN-expressing …", "experiment": "flow cytometry on MSLN+ OVCAR-3 cells (Alexa Fluor 647 anti-IgG-Fc, MFI)"}}, "data": [{"binder": "v29191, 2+1 Fab^3 TCB benchmark construct [MSLN (2 Fab) x CD3 (1 Fab)] (bispecific antibody, human IgG1, kappa, L234A L235A, also called Fab^3 benchmark) heavy 1: not shown heavy 2: QVQLVQSGAEVKKPGASVKVSCKASGYSFTGYTMNWVRQAPGQGLEWMGLITPYNGASSYNQKFRGKATMTVDTSTSTVYMELSSLRSEDTAVYYCARGGYDGRGFDYWGQGTLVTVSSASTKGPSVFPLAPSSKSTSGGTAALGCLVEDYFPEPVTVSWNSGALTSGVHTFPAVLQSSGLYSLSSVVTVPSSSLGTQTYICNVNHKPSNTKVDEKVEPKSCDKTHTCPPCPAPEAAGGPSVFLFPPKPKDTLMISRTPEVTCVVVDVSHEDPEVKFNWYVDGVEVHNAKTKPREEQYNSTYRVVSVLTVLHQDWLNGKEYKCKVSNKALGAPIEKTISKAKGQPREPQVCTLPPSRDELTKNQVSLSCAVKGFYPSDIAVEWESNGQPENNYKTTPPVLDSDGSFFLVSKLTVDKSRWQQGNVFSCSVMHEALHNHYTQKSLSLSPG light 1: EVQLLESGGGLVQPGGSLRLSCAASGFTFSTYAMNWVRQAPGKGLEWVSRIRSKYNNYATYYADSVKGRFTISRDDSKNTLYLQMNSLRAEDTAVYYCVRHGNFGNSYVSWFAYWGQGTLVTVSSASVAAPSVFIFPPSDEQLKSGTASVVCLLNNFYPREAKVQWKVDNALQSGNSQESVTEQDSKDSTYSLSSTLTLSKADYEKHKVYACEVTHQGLSSPVTKSFNRGEC light 2: DIQMTQSPSSLSASVGDRVTITCSASSSVSYMHWYQQKSGKAPKLLIYDTSKLASGVPSRFSGSGSGTDFTLTISSLQPEDFATYYCQQWSKHPLTFGQGTKLEIKRTVAAPSVFIFPPSDRKLKSGTASVVCLLNNFYPREAKVQWKVDNALQSGNSQESVTEQDSKDSTYSLSSTLTLSKADYEKHKVYACEVTHQGLSSPVTKSFNRGEC", "values": [{"measurement": "IC50 of T cell-dependent cytotoxicity on OVCAR-3 cells (pan T cells, E:T 5:1, 72 h)", "setting": "[1]", "result": 0.00089, "unit": "nM"}, {"measurement": "Affinity to MSln", "setting": "[2]", "result": 0.02, "unit": "nM"}, {"measurement": "EC50", "setting": "[3]", "result": 0.4, "unit": "nM"}, {"measurement": "EC50", "setting": "[4]", "result": 18.7, "unit": "nM"}, {"measurement": "fold higher relative affinity vs v32523", "setting": "[5]", "result": 7, "unit": "fold"}, {"measurement": "EC50 (read off the curve)", "setting": "[6]", "result": "~20", "unit": "nM"}, {"measurement": "EC50 (read off the curve)", "setting": "[7]", "result": "~30", "unit": "nM"}, {"measurement": "EC50 (read off the curve)", "setting": "[8]", "result": "~20", "unit": "nM"}]}, {"binder": "v32523, trivalent and bispecific antibody construct [MSLN (2 scFv) x CD3 (1 Fab)] (bispecific antibody, human IgG1, lambda, L234A L235A, also called construct v32523; stability engineered construct) heavy 1: not shown heavy 2: DIQMTQSPSSLSASVGDRVTITCSASSSVSYMHWYQQKSGKAPKLLIYDTSKLASGVPSRFSGSGSGTDFTLTISSLQPEDFATYYCQQWSGYPLTFGQGTKLEIKGGGGSGGGGSGGGGSGGGGSQVQLVQSGAEVKKPGASVKVSCKASGYSFTGYTMNWVRQAPGQGLEWMGLITPYNGASSYNQKFRGKATMTVDTSTSTVYMELSSLRSEDTAVYYCARGGYDGRGFDYWGQGTLVTVSSAAEPKSSDKTHTCPPCPAPEAAGGPSVFLFPPKPKDTLMISRTPEVTCVVVSVSHEDPEVKFNWYVDGVEVHNAKTKPREEQYNSTYRVVSVLTVLHQDWLNGKEYKCKVSNKALPAPIEKTISKAKGQPREPQVYVLPPSRDELTKNQVSLLCLVKGFYPSDIAVEWESNGQPENNYLTWPPVLDSDGSFFLYSKLTVDKSRWQQGNVFSCSVMHEALHNHYTQKSLSLSPG light: NFMLTQPHSVSESPGKTVTISCKRNTGNIGSNYVNWYQQHEGSSPTTIIYRNDKRPDGVSDRFSGSIDRSSKSASLTISNLKTEDEADYFCQSYSSGFIFGGGTKLTVLGQPKAAPSVTLFPPSSEELQANKATLVCLISDFYPGAVTVAWKADSSPVKAGVETTTPSKQSNNKYAASSYLSLTPEQWKSHRSYSCQVTHEGSTVEKTVAPTECS", "values": [{"measurement": "fold lower affinity vs v31805", "setting": "[9]", "result": 32, "unit": "fold"}, {"measurement": "fold lower affinity vs v31805", "setting": "[10]", "result": 53, "unit": "fold"}, {"measurement": "IC50 of T cell-dependent cytotoxicity on HCT116 cells (pan T cells, E:T 5:1, 72 h)", "setting": "[11]", "result": 0.0011, "unit": "nM"}, {"measurement": "fold lower apparent affinity vs v29191", "setting": "[12]", "result": "~2.7", "unit": "fold"}, {"measurement": "fold lower apparent affinity vs v31805", "setting": "[13]", "result": "~8.6", "unit": "fold"}, {"measurement": "EC50", "setting": "[3]", "result": 2.8, "unit": "nM"}, {"measurement": "Kd", "setting": "[14]", "result": 1.01, "unit": "nM"}, {"measurement": "koff", "setting": "[14]", "result": 0.000719, "unit": "s⁻¹"}, {"measurement": "kon", "setting": "[14]", "result": 714000, "unit": "M⁻¹ s⁻¹"}, {"measurement": "fold lower affinity vs v31805", "setting": "[15]", "result": "~30", "unit": "fold"}, {"measurement": "fold lower affinity vs v31805", "setting": "[16]", "result": "~50", "unit": "fold"}, {"measurement": "EC50", "setting": "[4]", "result": 50.5, "unit": "nM"}, {"measurement": "Kd", "setting": "[17]", "result": 40.1, "unit": "nM"}, {"measurement": "koff", "setting": "[17]", "result": 0.0112, "unit": "s⁻¹"}, {"measurement": "kon", "setting": "[17]", "result": 279000, "unit": "M⁻¹ s⁻¹"}, {"measurement": "EC50 (read off the curve)", "setting": "[18]", "result": "~3", "unit": "nM"}, {"measurement": "EC50 (read off the curve)", "setting": "[6]", "result": "~60", "unit": "nM"}, {"measurement": "EC50 (read off the curve)", "setting": "[7]", "result": "~80", "unit": "nM"}, {"measurement": "EC50 (read off the curve)", "setting": "[8]", "result": "~60", "unit": "nM"}]}]}
